For 2 substances, stoichiometry N results are on record in publication PMC6811359.

Assay [1] concerns the target PAL, light-oxygen-voltage (LOV) receptor from Nakamurella multipartita (Nakamurella multipartita). As to the kind of experiment: SEC.
The target is the same in assay [2]. As to the kind of experiment: SEC-MALS. In general terms: In gel filtration, larger molecules generally elute earlier.
For assay [3], the target named is isolated LOV domain of PAL (Nakamurella multipartita). As to the kind of experiment: SEC.
The target is the same in assay [4]. As to the kind of experiment: SEC-MALS.

The stoichiometry N is the number of molecules, sites or subunits per partner or assembly.

For the substance “PAL, light-oxygen-voltage (LOV) receptor from Nakamurella multipartita (natural protein)”, the stoichiometry N in assay [1] and in assay [2] was 2 each time.

Regarding “isolated LOV domain of PAL (domain or fragment)”, the stoichiometry N in assay [3] and in assay [4] was 2 each time.
